Results as given in patent US9308238B2, “Compositions and methods for modulating EMT and uses thereof” (Whitehead Institute for Biomedical Research, priority 2010, dated 2016).

Legend:
Type in all cases: cell-based, human
[1] = test system: HMLE^24+ cells; assay: Boyden chamber migration assay, HMLE^24+ cells
Method: FIGS. 3A-3E. Autocrine Signaling controls migration and mammosphere formation.
FIGS. 5A-5H. Concomitant stimulation of Wnt and TGF-beta pathways allows HMLE^24+ cells to enter into a mesenchymal and SC-like state. (FIG. 5A) RT-PCR: N-Cadherin, Zeb1 and Zeb2, L32 was loading control, n=3. Prior RNA isolation, HMLE^24+-shGFP or -shSFRP1 (stable knockdown of SFRP1, FIG. 12A) cells were treated for 3 days with daily doses of indicated factors: anti-DKK1 antibody (10 μg/ml), anti-E-Cadherin antibody (1 μg/ml), TGF-beta 1 (5 ng/ml), Wnt5a (250 ng/ml), (FIG. 5B) Brightfield microscopy: images of control, TGF-beta- and iEMT-cocktail treated HMLE^24+ cells after 14 days of treatment as indicated (see also FIG. 12D). (FIG. 5C) RT-PCR: Zeb1, Zeb2, E-Cadherin and N-Cadherin, L32 was loading control, n=3. After 14 day treatment, cells were expanded in absence of further stimulation for 4 passages. Shown are PBS-treated control HMLE^24+-shGFP and HMLE^24+-shSFRP1 cells, two HMLE^24+-shGFP cultures treated with TGF-beta 1 (TGF-β-a and -b), two HMLE^24+-shSFRP1 cultures treated with the iEMT-cocktail (iEMT-a and -b). (FIG. 5D) Immunoblot: EMT markers and associated autocrine pathways, cells generated as described in (C). (FIG. 5E) Migration (Boyden Chamber Assay) and Mammosphere Assay: cells generated as indicated in (C), *control vs. TGF-beta treatment, p<1×10^−4, **control vs. iEMT-treatment, p<1×10^−9, n(migration)=3, n(mammospheres)/1000 cells, n=7. (FIG. 5F) Flow cytometry: CD44 and CD24 cell-surface marker expression in control, TGF-beta-a and iEMT-a cells generated as described in (C). (FIG. 5G) Lung metastasis: cells expanded for 8 passages after cessation of treatment as described in (C) were transformed with RAS; 1.0×10^5 cells were injected into the mammary fat pads of mice; GFP-labeled metastases on the surface of the lungs were quantified; *control vs. all other groups, p<0.05, n=5 mice/group. […]

[2] = test system: MSP-RAS cells; assay: Boyden chamber migration assay, MSP-RAS cells; conditions: SFRP1 1 μg/ml, BMP4 0.5 μg/ml
Method: (§1) FIGS. 4A-4G. Autocrine Signaling controls tumorigenicity and metastasis of MSP-RAS cells. (FIG. 4A) Migration assay: RAS-transformed MSP (MSP-RAS) were seeded in Boyden Chamber migration assays and recombinant SFRP1 (1 μg/ml) and BMP4 protein (0.5 μg/ml) were added; *control vs. single treatment, p<1×10^−8, **single vs. double treatment with SFRP1 and BMP4 (S+B), p<1×10^−4, n=3. […] (FIG. 4E) Lung metastasis: fluorescence microscopy images of the major left lung lobe showing GFP-expressing metastatic nodules and quantification of the number of lung surface metastases; *control vs. SFRP1 treatment, p<0.05, **SFRP1 vs. BMP4 or double treatment (S+B), p<0.05, n=5 mice/group. (FIG. 4F) Liver metastasis: fluorescence microscopy images of the liver surface showing GFP-expressing micro-metastatic nodules after implantation of cells as described in (D) and quantification: 5 fields of liver surface were counted per mouse, *control vs. single treatment, p<0.05, **single vs. double treatment (S+B), p<0.05, n=5 mice/group. […]

[3] = test system: HTwist cells; assay: Mammosphere assay, HTwist cells; conditions: for reduction in sphere-forming efficiency, primary mammosphere formation: single vs combined proteins, daily for 5 days (FIG. 10C)
Method: FIGS. 10A-10E. […] (FIG. 10E) Mammosphere Assay: HTwist and MSP were treated daily during mammosphere formation (5 days) with BMP4 (0.5 μg/ml), SB431542 (10 μM) or a combination of both, n(mammospheres)/1000 cells, n=6.
Mammosphere and tumorsphere assay. Assays were performed as previously described with modifications (Dontu et al., 2003): 1000 cells/well were seeded in 96-well ultra-low adhesion plates (Corning) in MEGM medium containing 1.3% methylcellulose (Stem Cell Technologies) supplemented with 20 ng/ml EGF, 10 ng/ml bFGF (both Sigma) and B27 (Gibco). Primary spheres were dissociated by trypsinization and replated for secondary sphere formation after a period of 5-7 days.

[4] = test system: MSP-RAS primary tumorspheres; assay: Flow cytometry of CD44/CD24 in MSP-RAS primary tumorspheres; conditions: control tumorspheres 6.4%
Method: as §1
Fluorescent activated cell sorting (FACS) and flow cytometry. […] Samples were sorted on a BD FACSAria SORP and analyzed on a BD LSRII using BD FACSDiva Software (BD Biosciences).

Molecule: TGF-beta 1: recombinant TGF-beta 1 protein, used at 5 ng/ml
- increase in ability to migrate vs untreated control cells ([1]; after 14 day treatment): not in motility

B1: BMP4: Recombinant BMP4 protein obtained from Stemgent (protein, UniProt P12644 293-408, looked up)
Bone morphogenetic protein 4: SPKHHSQRARKKNKNCRRHSLYVDFSDVGWNDWIVAPPGYQAFYCHGDCPFPLADHLNSTNHAIVQTLVNSVNSSIPKACCVPTELSAISMLYLDEYDKVVLKNYQEMVVEGCGCR
- decrease of motility in vitro [2]: 4 fold
- reduction in sphere-forming efficiency, primary mammosphere formation [3]: 64%
- CD24-positive cells in primary tumorspheres [4]: 40%

B2: SFRP1: Recombinant human SFRP1 protein (R&D Systems), secreted decoy receptor binding canonical and non-canonical Wnt ligands (protein, UniProt Q8N474 32-314, looked up)
Secreted frizzled-related …: SEYDYVSFQSDIGPYQSGRFYTKPPQCVDIPADLRLCHNVGYKKMVLPNLLEHETMAEVKQQASSWVPLLNKNCHAGTQVFLCSLFAPVCLDRPIYPCRWLCEAVRDSCEPVMQFFGFYWPEMLKCDKFPEGDVCIAMTPPNATEASKPQGTTVCPPCDNELKSEAIIEHLCASEFALRMKIKEVKKENGDKKIVPKKKKPLKLGPIKKKDLKKLVLYLKNGADCPCHQLDNLSHHFLIMGRKVKSQYLLTAIHKWDKKNKEFKNFMKKMKNHECPTFQSVFK
- decrease of motility in vitro [2]: 9 fold
- motility of HMLE^24+ cells upon addition of protein ([1]; 0.5 μg/ml in growth medium): not further reduced
- reduction of primary mammosphere number ([3]; added daily for 5 days (FIG. 3D)): 50%
- reduction in sphere-forming efficiency, primary mammosphere formation [3]: 40%
- reduction of secondary sphere formation ([3]; treated during primary sphere formation only): 90%
- CD24-positive cells in primary tumorspheres [4]: 40%
